Measured values taken from PMC3743106 (Extremophiles : life under extreme conditions, 2013).
Several values for one entry are separate records, joined by “and”; a condition that tells them apart may be missing. Identical values can stand only once.

Assays:
[1] = biological target: Thermococcus kodakarensis replication factor C large subunit (Thermococcus kodakarensis) (UniProt Q5JHP1); assay: SEC
[2] = biological target: the molecule itself; assay: SEC

Chain of Thermococcus kodakarensis replication factor C large subunit (Thermococcus kodakarensis) (Q5JHP1 whole entry): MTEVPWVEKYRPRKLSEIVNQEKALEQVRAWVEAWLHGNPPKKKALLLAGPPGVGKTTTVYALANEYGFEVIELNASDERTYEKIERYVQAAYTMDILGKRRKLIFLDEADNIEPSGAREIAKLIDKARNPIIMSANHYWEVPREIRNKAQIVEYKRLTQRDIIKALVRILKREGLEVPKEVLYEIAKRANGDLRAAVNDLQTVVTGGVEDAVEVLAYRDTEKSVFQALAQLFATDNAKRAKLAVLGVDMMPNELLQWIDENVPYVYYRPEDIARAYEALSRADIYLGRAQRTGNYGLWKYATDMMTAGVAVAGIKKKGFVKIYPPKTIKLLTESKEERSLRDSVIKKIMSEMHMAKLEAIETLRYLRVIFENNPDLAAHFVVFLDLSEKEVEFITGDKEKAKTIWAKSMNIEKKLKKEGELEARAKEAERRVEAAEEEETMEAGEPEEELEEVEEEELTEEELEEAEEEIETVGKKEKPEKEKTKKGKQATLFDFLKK

stoichiometry N [1]	Molecule	stoichiometry N [2]
4	Thermococcus kodakarensis replication factor C small subunit (natural protein)	
	Thermococcus kodakarensis PCNA2 (proliferating cell nuclear antigen 2, encoded by TK0582) (natural protein, UniProt Q5JFD3 1-253, looked up) MTFEIVFDSAREFESLIATLEKFFDEAVFQVNMEGIQMRAIDPSRVVLVDLNLPEMLFSKYSVESEEAIAFDLKRFLKVLKLARSRDTLVLRKGGENFLEVGLLGDENTWFKLPLIDANTPEIEIPSLPWTVKAVVLAGALKRAVKAAKLVSDSIYFMATPEKLTFKAEGNDSEVRTVLTMEDPGLLDLEHKMTKAKSAYGVAYLEDILRSLADADEVIIRFGFDIPLLLKYMVRDAGEVSFLIAPRVEEGRS	3 and 6
	Thermococcus kodakarensis PCNA1 (proliferating cell nuclear antigen 1, encoded by TK0535) (natural protein, UniProt Q5JF32 1-249, looked up) MPFEVVFDGAKEFADLIATASNLIDEAAFKFTEEGISMRAMDPSRVVLIDLNLPESIFSKYEVEEPETIGINMDQFKKILKRGKAKDTLILRKGDENFLEITFEGTAKRTFRLPLIDVEELELELPELPFTAKVVLLGEVLKEGIKDASLVSDAIKFIAKENEFTMKAEGETNEVEIRLTLEDEGLLDLEVEEETKSAYGIRYLSDMVKGIGKADEVILRFGNEMPLQMEYMIRDEGRLTFLLAPRVEE	2 and 3
